Source: patent US20180044433A1 (FONDAZIONE IRCCS INSTITUTO NAZIONALE DEI TUMORI, published 2018)

What was measured:
JMJD6 peptide 20 = target: T1, JMJD6 peptide 20 (human); experiment: ELISA on plated peptides (1 ug/well)
T1 construct: also called pool D
T1 peptide: DSSYGEHPKRRKLL
Protocol: (§1) A peptide library was synthesized (Primm), consisting of 57 peptides with 14 amino acids each and whose sequences overlap for 7 amino acids. In order to assay the interaction with collagen, the peptides, were sown in a plate (1 ug/well) and incubated for the whole night at 4° C. […] The reaction was developed and read at 450 nm as indicated above. As control two unrelated peptides were used and the reactivity of the antibodies on the peptides in absence of collagen was evaluated.

JMJD6 peptide 54 = target: T2, JMJD6 peptide 54 (human); experiment: ELISA on plated peptides (1 ug/well)
T2 construct: also called pool I
T2 peptide: HRRKKRRTCSMVGN
Protocol: as §1

JMJD6 peptide 41 = target: T3, JMJD6 peptide 41 (human); experiment: ELISA on plated peptides (1 ug/well)
T3 construct: also called pool G
T3 peptide: TIAITQNFASSTNF
Protocol: as §1

JMJD6 peptide 1 = target: T4, JMJD6 peptide 1 (human); experiment: ELISA on plated peptides (1 ug/well)
T4 construct: also called pool A
T4 peptide: MNHKSKKRIREAKR
Protocol: as §1

JMJD6 peptide 25 = target: T5, JMJD6 peptide 25 (human); experiment: ELISA on plated peptides (1 ug/well)
T5 construct: also called pool E
T5 peptide: RPPYRWFVMGPPRS
Protocol: as §1

JMJD6 peptide 17 = target: T6, JMJD6 peptide 17 (human); experiment: ELISA on plated peptides (1 ug/well)
T6 construct: also called pool C
T6 peptide: KMKYYIEYMESTRD
Protocol: as §1

JMJD6 peptide 43 = target: T7, JMJD6 peptide 43 (human); experiment: ELISA on plated peptides (1 ug/well)
T7 construct: also called pool H
T7 peptide: PVVWHKTVRGRPKL
Protocol: as §1

JMJD6 peptide 24 = target: T8, JMJD6 peptide 24 (human); experiment: ELISA on plated peptides (1 ug/well)
T8 construct: also called pool E
T8 peptide: QYAGEKRRPPYRWF
Protocol: as §1

JMJD6 peptide 2 = target: T9, JMJD6 peptide 2 (human); experiment: ELISA on plated peptides (1 ug/well)
T9 construct: also called pool A
T9 peptide: RIREAKRSARPELK
Protocol: as §1

JMJD6 peptide 14 = target: T10, JMJD6 peptide 14 (human); experiment: ELISA on plated peptides (1 ug/well)
T10 construct: also called pool B
T10 peptide: RKYRNQKFKCGEDN
Protocol: as §1

JMJD6 peptide 30 = target: T11, JMJD6 peptide 30 (human); experiment: ELISA on plated peptides (1 ug/well)
T11 construct: also called pool F
T11 peptide: KRWCLFPTSTPREL
Protocol: as §1

JMJD6 peptide 21 = target: T12, JMJD6 peptide 21 (human); experiment: ELISA on plated peptides (1 ug/well)
T12 construct: also called pool D
T12 peptide: PKRRKLLEDYKVPK
Protocol: as §1

JMJD6 peptide 40 = target: T13, JMJD6 peptide 40 (human); experiment: ELISA on plated peptides (1 ug/well)
T13 construct: also called pool G
T13 peptide: VVLNLDTTIAITQN
Protocol: as §1

JMJD6 peptide 39 = target: T14, JMJD6 peptide 39 (human); experiment: ELISA on plated peptides (1 ug/well)
T14 construct: also called pool G
T14 peptide: VPGGWWHVVLNLDT
Protocol: as §1

JMJD6 peptide 45 = target: T15, JMJD6 peptide 45 (human); experiment: ELISA on plated peptides (1 ug/well)
T15 construct: also called pool H
T15 peptide: SRKWYRILKQEHPE
Protocol: as §1

JMJD6 peptide 38 = target: T16, JMJD6 peptide 38 (human); experiment: ELISA on plated peptides (1 ug/well)
T16 construct: also called pool G
T16 peptide: KPGETVFVPGGWWH
Protocol: as §1

JMJD6 peptide 13 = target: T17, JMJD6 peptide 13 (human); experiment: ELISA on plated peptides (1 ug/well)
T17 construct: also called pool B
T17 peptide: WTLERLKRKYRNQK
Protocol: as §1

JMJD6 peptide 44 = target: T18, JMJD6 peptide 44 (human); experiment: ELISA on plated peptides (1 ug/well)
T18 construct: also called pool H
T18 peptide: VRGRPKLSRKWYRI
Protocol: as §1

JMJD6 peptide 16 = target: T19, JMJD6 peptide 16 (human); experiment: ELISA on plated peptides (1 ug/well)
T19 construct: also called pool C
T19 peptide: DGYSVKMKMKYYIE
Protocol: as §1

JMJD6 peptide 53 = target: T20, JMJD6 peptide 53 (human); experiment: ELISA on plated peptides (1 ug/well)
T20 construct: also called pool I
T20 peptide: SEGDGTVHRRKKRR
Protocol: as §1

JMJD6 peptide 29 = target: T21, JMJD6 peptide 29 (human); experiment: ELISA on plated peptides (1 ug/well)
T21 construct: also called pool F
T21 peptide: NALVQGHKRWCLFP
Protocol: as §1

[1] = target: T22, JMJD6 5′/FLAG (amino acids 1-305 with C-terminal FLAG) (human, UniProt Q6NYC1 1-305); experiment: immunofluorescence on transfected MeWo cells
T22 construct: range 1-305; Expressed in transfected MeWo cells and tested by immunofluorescence; also called JM 5′/FLAG

binding result (JMJD6 peptide 20): no binding | binding result (JMJD6 peptide 54): no binding | binding result (JMJD6 peptide 41): no binding | binding result (JMJD6 peptide 1): no binding | binding result (JMJD6 peptide 25): no binding | binding result (JMJD6 peptide 17): no binding | binding result (JMJD6 peptide 43): no binding | binding result (JMJD6 peptide 24): no binding | binding result (JMJD6 peptide 2): no binding | binding result (JMJD6 peptide 14): no binding | binding result (JMJD6 peptide 30): no binding | binding result (JMJD6 peptide 21): no binding | binding result (JMJD6 peptide 40): no binding | binding result (JMJD6 peptide 39): no binding | binding result (JMJD6 peptide 45): no binding | binding result (JMJD6 peptide 38): no binding | binding result (JMJD6 peptide 13): no binding | binding result (JMJD6 peptide 44): no binding | binding result (JMJD6 peptide 16): no binding | binding result (JMJD6 peptide 53): no binding | binding result (JMJD6 peptide 29): no binding | binding result [1]: no binding
B1: monoclonal antibody P4E11 (antibody, V domains shown, not shown: a dimerising Fc or GST)
VH: QVQLKQSGPGLVQPSQSLSITCTVSGFSLSSYGVHWVRQSPGKGLEWLGVIWRSGNTDYNAVFMSRLSITKDDSKSQVFFKMNSLQADDTAIYYCAKNFRYDVGSWFAYWGQGTLVTVSA
VL: NIMMTQSPSSLAVSAGEKVTMNCKSSQSILYSSNHKNYLAWYQQKPGQSPKLLIYWASTRESGVPNRFTGSGSGTDFTLTISSVQSEDLAVYYCHQYLSSYTFGGGTKLEIKR
